Data published in patent US20170362324A1 (Biogen, published 2017).

Legend:
[1] = target: T1, human αvβ5 expressed on BaF3 cells (stably transfected with human αv and β5 subunits) (human, UniProt P06756 31-1048; P18084 24-799); assay: cell-based or functional assay
[2] = target: T1, human αvβ5 expressed on BaF3 cells …; assay: FACS on αvβ5-BaF3 cells, unpurified antibody
Description: FACS Binding Assay: Cells were washed one time in PBS, and then resuspended in FACS buffer (1×PBS, 1% BSA, 1 mM CaCl₂, and 1 mM MgCl₂). 1×10⁶ cells were then incubated on ice for 1 hr in FACS buffer containing the test antibody in a total volume of 50 μl. After incubation, the cells were washed two times with ice cold FACS buffer, resuspended in 50 μl of FACS buffer containing 3 μg/ml goat anti-mouse IgG AlexaFluor488 (Jackson ImmunoResearch), and incubated on ice for 30 min. The cells were then washed twice with ice cold FACS buffer and fixed in 1% PFA overnight. Cell aggregates were removed by filtering through 40 μm filter plates (Millipore) and binding of the labeled secondary antibody was monitored by flow cytometry using a FACS Calibur (BD Biosciences).
(§1) Screening of all combinations of heavy chain versions VH0, VH1, VH2, VH3, VH4, or VH5, with light chains VL0, VL1, VL2, or VL3 was carried out using unpurified proteins in conditioned cell media. The binding of each construct to biotin-conjugated human αvβ5 protein was determined using a solid-phase binding assay (ELISA) and by FACS, and the ability of each construct to block ligand binding was determined using a vitronectin cell adhesion assay (Table 1).

[3] = target: T2, human soluble αvβ5 protein (extracellular domains of human αv and β5 integrin subunits) (human, UniProt P06756 31-992; P18084 24-719); assay: ELISA, biotin-αvβ5 on streptavidin plate, unpurified antibody
T2 construct: also called biotin-αvβ5; hsαvβ5
T2 sequence (P06756 31-992 limits assumed, chain 1 of 2): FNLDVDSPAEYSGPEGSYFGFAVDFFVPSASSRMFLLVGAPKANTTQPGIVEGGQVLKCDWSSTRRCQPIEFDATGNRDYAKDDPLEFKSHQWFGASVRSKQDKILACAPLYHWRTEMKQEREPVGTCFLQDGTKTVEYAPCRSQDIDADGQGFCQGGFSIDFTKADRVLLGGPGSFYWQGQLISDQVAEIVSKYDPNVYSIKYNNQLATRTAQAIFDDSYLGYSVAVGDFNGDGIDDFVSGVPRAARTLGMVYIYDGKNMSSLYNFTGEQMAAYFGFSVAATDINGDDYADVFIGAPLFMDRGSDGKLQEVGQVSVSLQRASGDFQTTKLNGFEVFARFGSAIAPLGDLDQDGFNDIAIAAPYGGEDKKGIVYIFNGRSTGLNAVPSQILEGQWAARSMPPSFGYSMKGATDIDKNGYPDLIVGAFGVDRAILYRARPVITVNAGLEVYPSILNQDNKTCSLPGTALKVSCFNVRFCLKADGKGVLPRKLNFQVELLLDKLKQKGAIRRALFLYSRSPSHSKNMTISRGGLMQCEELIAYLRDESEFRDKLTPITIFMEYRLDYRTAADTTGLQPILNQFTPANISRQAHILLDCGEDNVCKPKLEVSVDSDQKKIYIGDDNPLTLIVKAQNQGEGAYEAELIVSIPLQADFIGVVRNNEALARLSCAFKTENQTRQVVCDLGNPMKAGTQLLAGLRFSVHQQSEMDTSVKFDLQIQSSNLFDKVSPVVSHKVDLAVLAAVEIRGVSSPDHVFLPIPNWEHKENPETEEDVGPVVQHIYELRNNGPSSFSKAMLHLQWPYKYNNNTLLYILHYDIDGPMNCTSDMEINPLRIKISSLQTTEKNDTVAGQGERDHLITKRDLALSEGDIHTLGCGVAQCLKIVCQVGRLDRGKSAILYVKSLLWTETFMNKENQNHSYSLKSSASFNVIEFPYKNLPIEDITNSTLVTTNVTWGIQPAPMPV
T2 sequence (P18084 24-719 limits assumed, chain 2 of 2): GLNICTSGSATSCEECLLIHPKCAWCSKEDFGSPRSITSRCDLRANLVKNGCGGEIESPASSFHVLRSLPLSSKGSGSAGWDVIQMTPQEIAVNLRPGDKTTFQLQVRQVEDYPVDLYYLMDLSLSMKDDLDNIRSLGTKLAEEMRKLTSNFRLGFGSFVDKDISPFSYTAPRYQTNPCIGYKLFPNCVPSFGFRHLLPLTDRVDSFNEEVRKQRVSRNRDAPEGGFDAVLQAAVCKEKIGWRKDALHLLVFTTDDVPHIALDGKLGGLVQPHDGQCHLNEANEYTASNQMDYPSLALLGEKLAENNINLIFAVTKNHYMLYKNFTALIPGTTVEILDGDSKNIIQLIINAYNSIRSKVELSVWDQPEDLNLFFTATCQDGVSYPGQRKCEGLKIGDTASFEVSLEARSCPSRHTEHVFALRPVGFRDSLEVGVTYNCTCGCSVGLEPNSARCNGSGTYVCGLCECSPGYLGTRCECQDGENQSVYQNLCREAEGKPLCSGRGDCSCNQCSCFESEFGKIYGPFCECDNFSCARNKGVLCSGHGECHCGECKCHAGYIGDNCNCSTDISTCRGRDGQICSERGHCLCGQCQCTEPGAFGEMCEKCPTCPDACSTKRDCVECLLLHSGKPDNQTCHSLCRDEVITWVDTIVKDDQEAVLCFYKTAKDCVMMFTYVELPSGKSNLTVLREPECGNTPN
Description: Solid-Phase αvβ5 Binding Assay (ELISA): A 96-well microtiter plate was precoated with streptavidin (Thermo Scientific Reacti-Bind StreptAvidin Coated High Binding Capacity plate) was used. Biotinylated soluble αvβ5 protein (2 μg/mL) in TBS with 1% BSA was added to the wells, and the plate was incubated for 1 hr at 25° C. The plate was washed with wash buffer (0.05% Tween-20 in PBS), and purified humanized ALULA antibody in TBS containing 1% BSA, 1 mM CaCl2, and 1 mM MgCl2 were added (50 μl/well). The plate was incubated for 1 hr at 25° C., washed, and then incubated for 1 hr with 50 μl/well of […] goat anti-human secondary antibody. Bound antibody was detected using 3,3′,5,5′-tetramethylbenzidine (TMB). Binding was indicated by the absorbency measured at 450 nm.
as §1

T1 sequence (P06756 31-1048 limits assumed, chain 1 of 2): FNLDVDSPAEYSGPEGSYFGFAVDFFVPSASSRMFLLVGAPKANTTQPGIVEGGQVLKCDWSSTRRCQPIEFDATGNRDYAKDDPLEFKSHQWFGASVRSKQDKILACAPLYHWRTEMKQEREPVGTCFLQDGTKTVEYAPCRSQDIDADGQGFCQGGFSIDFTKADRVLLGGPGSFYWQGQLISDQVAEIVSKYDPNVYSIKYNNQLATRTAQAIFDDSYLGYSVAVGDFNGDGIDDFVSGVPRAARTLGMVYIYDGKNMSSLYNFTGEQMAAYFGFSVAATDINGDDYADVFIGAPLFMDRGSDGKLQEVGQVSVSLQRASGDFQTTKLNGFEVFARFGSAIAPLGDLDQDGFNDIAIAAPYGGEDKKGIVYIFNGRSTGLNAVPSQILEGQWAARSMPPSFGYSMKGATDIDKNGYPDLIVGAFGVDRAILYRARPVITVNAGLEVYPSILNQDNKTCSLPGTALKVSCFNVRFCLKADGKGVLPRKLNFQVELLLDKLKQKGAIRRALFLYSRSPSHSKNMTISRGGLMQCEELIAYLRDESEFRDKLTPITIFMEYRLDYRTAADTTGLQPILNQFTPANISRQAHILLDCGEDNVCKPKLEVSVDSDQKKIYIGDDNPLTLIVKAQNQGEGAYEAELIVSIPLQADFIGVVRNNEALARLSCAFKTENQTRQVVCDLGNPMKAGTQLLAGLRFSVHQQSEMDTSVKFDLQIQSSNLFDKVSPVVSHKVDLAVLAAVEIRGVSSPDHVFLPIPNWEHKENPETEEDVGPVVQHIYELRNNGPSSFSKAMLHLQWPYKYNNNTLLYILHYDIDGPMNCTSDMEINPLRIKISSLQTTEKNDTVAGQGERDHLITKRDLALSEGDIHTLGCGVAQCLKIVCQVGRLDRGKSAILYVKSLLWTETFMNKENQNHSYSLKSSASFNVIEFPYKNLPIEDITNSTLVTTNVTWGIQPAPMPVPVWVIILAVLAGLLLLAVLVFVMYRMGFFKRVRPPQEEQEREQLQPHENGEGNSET
T1 sequence (P18084 24-799 limits assumed, chain 2 of 2): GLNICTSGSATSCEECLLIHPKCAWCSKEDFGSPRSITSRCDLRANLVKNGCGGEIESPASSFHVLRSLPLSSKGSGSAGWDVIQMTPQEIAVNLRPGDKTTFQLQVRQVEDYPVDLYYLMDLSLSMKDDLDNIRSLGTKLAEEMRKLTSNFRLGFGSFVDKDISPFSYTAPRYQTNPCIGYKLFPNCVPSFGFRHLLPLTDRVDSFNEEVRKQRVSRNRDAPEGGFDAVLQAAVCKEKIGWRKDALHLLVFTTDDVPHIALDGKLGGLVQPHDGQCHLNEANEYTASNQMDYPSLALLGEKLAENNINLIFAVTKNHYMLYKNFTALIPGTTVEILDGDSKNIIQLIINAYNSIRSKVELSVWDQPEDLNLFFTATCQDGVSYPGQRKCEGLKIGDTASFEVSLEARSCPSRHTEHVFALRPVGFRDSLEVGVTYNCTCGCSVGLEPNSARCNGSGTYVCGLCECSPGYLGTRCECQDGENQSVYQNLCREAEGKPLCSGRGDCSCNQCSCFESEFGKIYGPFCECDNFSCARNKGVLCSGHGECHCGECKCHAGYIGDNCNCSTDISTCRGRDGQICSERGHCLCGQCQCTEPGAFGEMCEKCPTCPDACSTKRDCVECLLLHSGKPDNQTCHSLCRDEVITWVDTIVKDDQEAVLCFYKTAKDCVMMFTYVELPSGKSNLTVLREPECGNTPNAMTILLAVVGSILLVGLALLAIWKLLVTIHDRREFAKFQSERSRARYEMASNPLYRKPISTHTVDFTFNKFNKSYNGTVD

Binder	VN adhesion inhibition, αvβ5-BaF3 (IC50, nM) [1]	EC50 [2]	EC50 [3]
VH3/VL3 Agly-hIgG1(T299A) (antibody, V domains shown, also called H3/L3) VH: EVQVVESGGGLVKPGGSLRLSCKASGYTFTSYWMHWVKQAPGKGLEWVGAIYPGNSDTSYNQKFKGKFTLSAVTSSNTAYLQMNSLKTEDTAVYYCTTTTYGYDWFAYWGQGTLVTVSS VL: DIQMTQSPSSLTVSVGDRVTMSCKSSQSVLYSSNQKNYLAWYQQKPGKSPKLLIYWASTRESGVPDRFTGSGSGTDFTLTISSVQPEDFATYYCHQYLSSLTFGAGTKLEIK	227 nM	6290 nM	1.2 nM
VH2/VL3 Agly-hIgG1(T299A) (antibody, V domains shown, also called H2/L3) VH: EVQVVQSGGGLVKPGESLRLSCAASGYTFTSYWMHWVKQAPGKGLEWVGAIYPGNSDTSYNQKFKGKFTISADTSSNTAYLQMNSLKTEDTAVYYCTTTTYGYDWFAYWGQGTLVTVSS VL: DIQMTQSPSSLTVSVGDRVTMSCKSSQSVLYSSNQKNYLAWYQQKPGKSPKLLIYWASTRESGVPDRFTGSGSGTDFTLTISSVQPEDFATYYCHQYLSSLTFGAGTKLEIK	303 nM	990 nM	1 nM
VH2/VL1 Agly-hIgG1(T299A) (antibody, V domains shown, also called H2/L1) VH: EVQVVQSGGGLVKPGESLRLSCAASGYTFTSYWMHWVKQAPGKGLEWVGAIYPGNSDTSYNQKFKGKFTISADTSSNTAYLQMNSLKTEDTAVYYCTTTTYGYDWFAYWGQGTLVTVSS VL: DIQMTQSPSSLSASVGDRVTMTCKSSQSVLYSSNQKNYLAWYQQKPGKAPKLLIYWASTRESGVPDRFSGSGSGTDFTLTISSLQPEDFATYYCHQYLSSLTFGQGTKLEIK	318 nM	405 nM	1 nM
VH4/VL3 Agly-hIgG1(T299A) (antibody, V domains shown, also called H4/L3) VH: EVQVVQSGGGLVKPGESLRLSCKASGYTFTSYWMHWVKQAPGKGLEWVGAIYPGNSDTSYNQKFKGKFTISADTSPNTAYLQMNSLKTEDTAVYYCTTTTYGYDWFAYWGQGTLVTVSS VL: DIQMTQSPSSLTVSVGDRVTMSCKSSQSVLYSSNQKNYLAWYQQKPGKSPKLLIYWASTRESGVPDRFTGSGSGTDFTLTISSVQPEDFATYYCHQYLSSLTFGAGTKLEIK	64.8 nM	162 nM	1.7 nM
VH1/VL2 Agly-hIgG1(T299A) (antibody, V domains shown, also called H1/L2) VH: EVQVVESGGGLVKPGGSLRLSCAASGYTFTSYWMHWVRQAPGKGLEWVGAIYPGNSDTSYNQKFKGRFTISADTSKNTLYLQMNSLKTEDTAVYYCTTTTYGYDWFAYWGQGTLVTVSS VL: NIQMTQSPSSLSASVGDRVTMSCKSSQSVLYSSNQKNYLAWYQQKPGKSPKLLIYWASTRESGVPDRFTGSGSGTDFTLTISSLQPEDFATYYCHQYLSSLTFGQGTKLEIK	1730 nM	5370 nM	2.3 nM

More lines, in order of falling EC50 [2], values ahead:

VN adhesion inhibition, αvβ5-BaF3 (IC50, nM) [1]	EC50 [2]	EC50 [3]	Binder
3300 nM	3680 nM	1 nM	VH1/VL0 Agly-hIgG1(T299A) (antibody, V domains shown, also called H1/L0) VH: EVQVVESGGGLVKPGGSLRLSCAASGYTFTSYWMHWVRQAPGKGLEWVGAIYPGNSDTSYNQKFKGRFTISADTSKNTLYLQMNSLKTEDTAVYYCTTTTYGYDWFAYWGQGTLVTVSS VL: DIQMTQSPSSVSASVGDRVTITCKSSQSVLYSSNQKNYLAWYQQKPGKAPKLLIYWASTRESGVPSRFSGSGSGTDFTLTISSLQPEDFATYYCHQYLSSLTFGQGTKVEIK
2520 nM	3360 nM	1.9 nM	VH1/VL1 Agly-hIgG1(T299A) (antibody, V domains shown, also called H1/L1) VH: EVQVVESGGGLVKPGGSLRLSCAASGYTFTSYWMHWVRQAPGKGLEWVGAIYPGNSDTSYNQKFKGRFTISADTSKNTLYLQMNSLKTEDTAVYYCTTTTYGYDWFAYWGQGTLVTVSS VL: DIQMTQSPSSLSASVGDRVTMTCKSSQSVLYSSNQKNYLAWYQQKPGKAPKLLIYWASTRESGVPDRFSGSGSGTDFTLTISSLQPEDFATYYCHQYLSSLTFGQGTKLEIK
1840 nM	2930 nM	2.9 nM	VH1/VL3 Agly-hIgG1(T299A) (antibody, V domains shown, also called H1/L3) VH: EVQVVESGGGLVKPGGSLRLSCAASGYTFTSYWMHWVRQAPGKGLEWVGAIYPGNSDTSYNQKFKGRFTISADTSKNTLYLQMNSLKTEDTAVYYCTTTTYGYDWFAYWGQGTLVTVSS VL: DIQMTQSPSSLTVSVGDRVTMSCKSSQSVLYSSNQKNYLAWYQQKPGKSPKLLIYWASTRESGVPDRFTGSGSGTDFTLTISSVQPEDFATYYCHQYLSSLTFGAGTKLEIK
360 nM	1930 nM	1.2 nM	VH3/VL1 Agly-hIgG1(T299A) (antibody, V domains shown, also called H3/L1) VH: EVQVVESGGGLVKPGGSLRLSCKASGYTFTSYWMHWVKQAPGKGLEWVGAIYPGNSDTSYNQKFKGKFTLSAVTSSNTAYLQMNSLKTEDTAVYYCTTTTYGYDWFAYWGQGTLVTVSS VL: DIQMTQSPSSLSASVGDRVTMTCKSSQSVLYSSNQKNYLAWYQQKPGKAPKLLIYWASTRESGVPDRFSGSGSGTDFTLTISSLQPEDFATYYCHQYLSSLTFGQGTKLEIK
494 nM	1270 nM	0.9 nM	VH0/VL3 Agly-hIgG1(T299A) (antibody, V domains shown, also called H0/L3) VH: EVQLVESGGGLVKPGGSLRLSCAASGYTFTSYWMHWVRQAPGKGLEWVGAIYPGNSDTSYNQKFKGRFTISRDDSKNTLYLQMNSLKTEDTAVYYCTTTTYGYDWFAYWGQGTLVTVSS VL: DIQMTQSPSSLTVSVGDRVTMSCKSSQSVLYSSNQKNYLAWYQQKPGKSPKLLIYWASTRESGVPDRFTGSGSGTDFTLTISSVQPEDFATYYCHQYLSSLTFGAGTKLEIK
1970 nM	855 nM	1 nM	VH0/VL2 Agly-hIgG1(T299A) (antibody, V domains shown, also called H0/L2) VH: EVQLVESGGGLVKPGGSLRLSCAASGYTFTSYWMHWVRQAPGKGLEWVGAIYPGNSDTSYNQKFKGRFTISRDDSKNTLYLQMNSLKTEDTAVYYCTTTTYGYDWFAYWGQGTLVTVSS VL: NIQMTQSPSSLSASVGDRVTMSCKSSQSVLYSSNQKNYLAWYQQKPGKSPKLLIYWASTRESGVPDRFTGSGSGTDFTLTISSLQPEDFATYYCHQYLSSLTFGQGTKLEIK
72.2 nM	422 nM	1.4 nM	VH5/VL3 Agly-hIgG1(T299A) (antibody, V domains shown, also called H5/L3) VH: EVQVQQSGGGLVKPGGSLRLSCKASGYTFTSYWMHWVKQAPGKGLEWVGAIYPGNSDTSYNQKFKGKATLSAVTSPNTAYLQMNSLKTEDTAVYYCTTTTYGYDWFAYWGQGTLVTVSS VL: DIQMTQSPSSLTVSVGDRVTMSCKSSQSVLYSSNQKNYLAWYQQKPGKSPKLLIYWASTRESGVPDRFTGSGSGTDFTLTISSVQPEDFATYYCHQYLSSLTFGAGTKLEIK
